# B1: Transcription factor 12 (Homo sapiens), Q99081 (parent)
# chain: MNPQQQRMAAIGTDKELSDLLDFSAMFSPPVNSGKTRPTTLGSSQFSGSGIDERGGTTSWGTSGQPSPSYDSSRGFTDSPHYSDHLNDSRLGAHEGLSPTPFMNSNLMGKTSERGSFSLYSRDTGLPGCQSSLLRQDLGLGSPAQLSSSGKPGTAYYSFSATSSRRRPLHDSAALDPLQAKKVRKVPPGLPSSVYAPSPNSDDFNRESPSYPSPKPPTSMFASTFFMQDGTHNSSDLWSSSNGMSQPGFGGILGTSTSHMSQSSSYGNLHSHDRLSYPPHSVSPTDINTSLPPMSSFHRGSTSSSPYVAASHTPPINGSDSILGTRGNAAGSSQTGDALGKALASIYSPDHTSSSFPSNPSTPVGSPSPLTGTSQWPRPGGQAPSSPSYENSLHSLQSRMEDRLDRLDDAIHVLRNHAVGPSTSLPAGHSDIHSLLGPSHNAPIGSLNSNYGGSSLVASSRSASMVGTHREDSVSLNGNHSVLSSTVTTSSTDLNHKTQENYRGGLQSQSGTVVTTEIKTENKEKDENLHEPPSSDDMKSDDESSQKDIKVSSRGRTSSTNEDEDLNPEQKIEREKERRMANNARERLRVRDINEAFKELGRMCQLHLKSEKPQTKLLILHQAVAVILSLEQQVRERNLNPKAACLKRREEEKVSAVSAEPPTTLPGTHPGLSETTNPMGHM
# partner: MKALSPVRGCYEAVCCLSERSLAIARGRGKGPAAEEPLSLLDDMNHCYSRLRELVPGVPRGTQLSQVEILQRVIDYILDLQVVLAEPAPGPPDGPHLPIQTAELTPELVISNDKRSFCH
# B2: Keratin-associated protein 5-9 (Homo sapiens), P26371 (parent)
# chain: MGCCGCSGGCGSSCGGCDSSCGSCGSGCRGCGPSCCAPVYCCKPVCCCVPACSCSSCGKRGCGSCGGSKGGCGSCGCSQCSCCKPCCCSSGCGSSCCQCSCCKPYCSQCSCCKPCCSSSGRGSSCCQSSCCKPCCSSSGCGSSCCQSSCCKPCCSQSRCCVPVCYQCKI
# partner: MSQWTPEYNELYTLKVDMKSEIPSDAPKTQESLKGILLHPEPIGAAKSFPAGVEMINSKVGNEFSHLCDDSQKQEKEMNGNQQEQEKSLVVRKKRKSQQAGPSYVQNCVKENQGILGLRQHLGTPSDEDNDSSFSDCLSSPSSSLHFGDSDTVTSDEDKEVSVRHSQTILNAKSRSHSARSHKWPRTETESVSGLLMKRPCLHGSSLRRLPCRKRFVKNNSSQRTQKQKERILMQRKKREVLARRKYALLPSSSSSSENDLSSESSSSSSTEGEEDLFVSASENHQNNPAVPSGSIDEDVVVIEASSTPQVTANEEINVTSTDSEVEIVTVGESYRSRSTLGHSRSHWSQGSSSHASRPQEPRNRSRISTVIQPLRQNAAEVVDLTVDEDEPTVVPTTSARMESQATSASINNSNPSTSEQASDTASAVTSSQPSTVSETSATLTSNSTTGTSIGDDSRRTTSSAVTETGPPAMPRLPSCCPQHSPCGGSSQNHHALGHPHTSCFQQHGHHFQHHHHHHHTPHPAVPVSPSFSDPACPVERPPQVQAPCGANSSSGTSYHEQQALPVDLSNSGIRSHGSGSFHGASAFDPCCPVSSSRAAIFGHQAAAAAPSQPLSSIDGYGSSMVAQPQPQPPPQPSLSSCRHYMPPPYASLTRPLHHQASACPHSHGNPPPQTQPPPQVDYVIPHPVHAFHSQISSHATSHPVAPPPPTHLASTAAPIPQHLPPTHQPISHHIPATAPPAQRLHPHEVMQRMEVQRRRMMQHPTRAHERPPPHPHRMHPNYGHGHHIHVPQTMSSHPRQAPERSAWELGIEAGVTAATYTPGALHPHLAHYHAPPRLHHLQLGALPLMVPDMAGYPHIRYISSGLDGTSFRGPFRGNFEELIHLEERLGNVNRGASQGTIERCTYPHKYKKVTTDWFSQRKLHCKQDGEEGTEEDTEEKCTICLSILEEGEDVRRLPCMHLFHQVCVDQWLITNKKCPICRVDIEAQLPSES
# B3: Ligand of Numb protein X 2 (Homo sapiens), Q8N448 (parent)
# chain: MGTTSDEMVSVEQTSSSSLNPLCFECGQQHWTRENHLYNYQNEVDDDLVCHICLQPLLQPLDTPCGHTFCYKCLRNFLQEKDFCPLDRKRLHFKLCKKSSILVHKLLDKLLVLCPFSSVCKDVMQRCDLEAHLKNRCPGASHRRVALERRKTSRTQAEIENENGPTLLDPAGTLSPEADCLGTGAVPVERHLTSASLSTWSEEPGLDNPAFEESAGADTTQQPLSLPEGEITTIEIHRSNPYIQLGISIVGGNETPLINIVIQEVYRDGVIARDGRLLAGDQILQVNNYNISNVSHNYARAVLSQPCNTLHLTVLRERRFGNRAHNHSDSNSPREEIFQVALHKRDSGEQLGIKLVRRTDEPGVFILDLLEGGLAAQDGRLSSNDRVLAINGHDLKYGTPELAAQIIQASGERVNLTIARPGKPQPGNTIREAGNHSSSSQHHTPPPYYSRPSSHKDLTQCVTCQEKHITVKKEPHESLGMTVAGGRGSKSGELPIFVTSVPPHGCLARDGRIKRGDVLLNINGIDLTNLSHSEAVAMLKASAASPAVALKALEVQIVEEATQNAEEQPSTFSENEYDASWSPSWVMWLGLPSTLHSCHDIVLRRSYLGSWGFSIVGGYEENHTNQPFFIKTIVLGTPAYYDGRLKCGDMIVAVNGLSTVGMSHSALVPMLKEQRNKVTLTVICWPGSLV
# partner: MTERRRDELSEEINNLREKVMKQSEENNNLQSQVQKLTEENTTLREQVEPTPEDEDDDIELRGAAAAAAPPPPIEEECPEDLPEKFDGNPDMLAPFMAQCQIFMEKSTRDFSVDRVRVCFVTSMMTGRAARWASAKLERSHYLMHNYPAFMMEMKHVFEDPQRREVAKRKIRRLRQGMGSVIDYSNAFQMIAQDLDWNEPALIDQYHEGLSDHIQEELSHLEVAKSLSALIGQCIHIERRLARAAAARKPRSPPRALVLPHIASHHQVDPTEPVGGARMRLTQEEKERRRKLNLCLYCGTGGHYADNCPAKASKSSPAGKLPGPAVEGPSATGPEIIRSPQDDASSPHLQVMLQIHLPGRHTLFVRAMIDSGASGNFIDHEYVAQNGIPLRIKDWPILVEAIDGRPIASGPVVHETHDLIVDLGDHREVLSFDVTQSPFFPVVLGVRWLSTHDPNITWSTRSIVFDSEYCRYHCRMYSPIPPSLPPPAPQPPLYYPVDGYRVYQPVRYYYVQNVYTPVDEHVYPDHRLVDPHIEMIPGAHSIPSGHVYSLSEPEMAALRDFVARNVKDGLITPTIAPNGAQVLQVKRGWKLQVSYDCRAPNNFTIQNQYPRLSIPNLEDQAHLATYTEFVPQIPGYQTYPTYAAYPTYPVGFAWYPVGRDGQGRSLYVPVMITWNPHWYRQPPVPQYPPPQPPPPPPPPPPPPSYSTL
# B4: 3-hydroxyanthranilate 3,4-dioxygenase (Homo sapiens), P46952 (parent)
# chain: MERRLGVRAWVKENRGSFQPPVCNKLMHQEQLKVMFIGGPNTRKDYHIEEGEEVFYQLEGDMVLRVLEQGKHRDVVIRQGEIFLLPARVPHSPQRFANTVGLVVERRRLETELDGLRYYVGDTMDVLFEKWFYCKDLGTQLAPIIQEFFSSEQYRTGKPIPDQLLKEPPFPLSTRSIMEPMSLDAWLDSHHRELQAGTPLSLFGDTYETQVIAYGQGSSEGLRQNVDVWLWQLEGSSVVTMGGRRLSLAPDDSLLVLAGTSYAWERTQGSVALSVTQDPACKKPLG
# partner: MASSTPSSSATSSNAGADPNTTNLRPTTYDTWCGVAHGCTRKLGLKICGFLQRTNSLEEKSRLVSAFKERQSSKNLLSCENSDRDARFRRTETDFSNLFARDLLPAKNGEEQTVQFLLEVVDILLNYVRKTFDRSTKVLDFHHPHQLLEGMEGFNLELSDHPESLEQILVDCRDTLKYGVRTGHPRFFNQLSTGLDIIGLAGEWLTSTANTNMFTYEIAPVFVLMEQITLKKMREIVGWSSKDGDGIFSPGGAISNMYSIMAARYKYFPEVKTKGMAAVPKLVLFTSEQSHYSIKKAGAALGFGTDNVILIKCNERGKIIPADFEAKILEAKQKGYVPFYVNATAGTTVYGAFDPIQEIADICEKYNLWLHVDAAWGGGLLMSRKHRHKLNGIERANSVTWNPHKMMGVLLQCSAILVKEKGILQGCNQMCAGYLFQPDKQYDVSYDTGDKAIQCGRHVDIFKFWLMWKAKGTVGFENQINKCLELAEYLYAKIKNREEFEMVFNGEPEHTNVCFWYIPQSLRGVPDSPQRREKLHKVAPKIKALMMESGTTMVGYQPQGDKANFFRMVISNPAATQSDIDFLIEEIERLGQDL
# Variants of: B1
# Conditions: with id3_human ID3, Q02535
row,Variant,effect of a mutation on the interaction
1,A458V,with no effect

# Variants of: B2
# Conditions: with rn111_human RNF111, Q6ZNA4
row,Variant,effect of a mutation on the interaction
1,Y40C,with no effect

# Variants of: B3
# Conditions: with peg10_human PEG10, Q86TG7
row,Variant,effect of a mutation on the interaction
1,T183I,with no effect
2,V145I,with no effect

# Variants of: B4
# Conditions: with dce1_human GAD1, Q99259
row,Variant,effect of a mutation on the interaction
1,I37V,with no effect
2,T42S,with no effect
